Source: the Immune Epitope Database (IEDB)
Values belong to the sequence of their own block, whether it stands above or below them.

Legend:
HLA-A*01:01 [1] = assay: IEDB peptide-MHC binding, purified MHC/direct/fluorescence; filed as Kd, often an IC50 or EC50 that approximates it; ≥ and ≤ were set here for values at or beyond the usual limits of such assays
HLA-A*02:01 = assay: as above
HLA-A*03:01 = assay: as above
HLA-A*11:01 = assay: as above; conditions: source organism: Pseudomonas aeruginosa
HLA-A*26:01 = assay: as above
HLA-A*31:01 = assay: as above; conditions: source organism: Pseudomonas aeruginosa
HLA-A*69:01 = assay: as above
HLA-B*07:02 = assay: as above
HLA-B*08:01 = assay: as above; conditions: source organism: Pseudomonas aeruginosa
HLA-B*15:01 [2] = assay: as above
HLA-B*27:05 = assay: as above; conditions: source organism: Pseudomonas aeruginosa
HLA-B*40:01 = assay: as above; conditions: source organism: Pseudomonas aeruginosa
HLA-B*58:01 = assay: as above; conditions: source organism: Pseudomonas aeruginosa
HLA-B*15:02 = assay: IEDB peptide-MHC binding, purified MHC/competitive/fluorescence; filed as Kd, often an IC50 or EC50 that approximates it; ≥ and ≤ were set here for values at or beyond the usual limits of such assays
HLA-A*02:03 = assay: IEDB peptide-MHC binding, purified MHC/direct/fluorescence; filed as Kd, often an IC50 or EC50 that approximates it; ≥ and ≤ were set here for values at or beyond the usual limits of such assays
HLA-A*02:11 = assay: as above
HLA-A*02:12 = assay: as above
HLA-A*02:16 = assay: as above
HLA-A*02:19 = assay: as above
HLA-A*24:03 = assay: as above
HLA-A*29:02 = assay: as above; conditions: source organism: Rickettsia sibirica 246
HLA-A*68:02 = assay: as above
HLA-B*15:17 = assay: as above; conditions: source organism: Rickettsia sibirica 246
HLA-B*18:01 = assay: as above
HLA-B*27:03 = assay: as above
HLA-B*35:01 = assay: as above
HLA-B*39:01 = assay: as above
HLA-B*46:01 [3] = assay: as above
HLA-B*51:01 = assay: as above
HLA-B*57:01 = assay: as above
HLA-B*48:01 = assay: as above; conditions: source organism: Burkholderia mallei
HLA-C*08:02 = assay: as above
HLA-C*14:02 = assay: as above
HLA-A*80:01 = assay: as above; conditions: source organism: Francisella tularensis subsp. holarctica LVS
HLA-C*12:03 = assay: as above
HLA-A*01:01 [4] = assay: IEDB peptide-MHC binding, purified MHC/competitive/fluorescence; ≥ and ≤ were set here for values at or beyond the usual limits of such assays; conditions: source organism: Sudan ebolavirus
HLA-B*15:01 [5] = assay: as above; conditions: source organism: Sudan ebolavirus
HLA-B*46:01 [6] = assay: IEDB peptide-MHC binding, purified MHC/competitive/fluorescence; filed as Kd, often an IC50 or EC50 that approximates it; ≥ and ≤ were set here for values at or beyond the usual limits of such assays; conditions: source organism: Shigella sonnei Ss046
HLA-C*15:02 = assay: IEDB peptide-MHC binding, purified MHC/direct/fluorescence; filed as Kd, often an IC50 or EC50 that approximates it; ≥ and ≤ were set here for values at or beyond the usual limits of such assays; conditions: source organism: Vibrio vulnificus YJ016
HLA-B*15:42 = assay: IEDB peptide-MHC binding, purified MHC/competitive/fluorescence; filed as Kd, often an IC50 or EC50 that approximates it; ≥ and ≤ were set here for values at or beyond the usual limits of such assays; conditions: source organism: Vibrio vulnificus YJ016
HLA-B*45:06 = assay: as above; conditions: source organism: Vibrio vulnificus YJ016
HLA-B*83:01 = assay: as above; conditions: source organism: Vibrio vulnificus YJ016
HLA-C*06:02 = assay: as above; conditions: source organism: Vibrio vulnificus YJ016
[7] = source organism: Pseudomonas aeruginosa
[8] = source organism: Rickettsia sibirica 246
[9] = source organism: Yersinia pestis CO92
[10] = source organism: Giardia lamblia ATCC 50803
[11] = source organism: Squirrelpox virus
[12] = source organism: Escherichia coli O157:H7 str. EC4486
[13] = source organism: Vibrio vulnificus
[14] = source organism: Vibrio vulnificus YJ016

Kd (HLA-A*01:01 [1]; [7]): 2 µM
Kd (HLA-A*02:01; [7]): ≥ 20 µM
Kd (HLA-A*03:01; [7]): ≥ 20 µM
Kd (HLA-A*11:01): ≥ 20 µM
Kd (HLA-A*26:01; [7]): ≥ 20 µM
Kd (HLA-A*31:01): ≥ 20 µM
Kd (HLA-A*69:01; [7]): ≥ 20 µM
Kd (HLA-B*07:02; [7]): ≥ 20 µM
Kd (HLA-B*08:01): ≥ 20 µM
Kd (HLA-B*15:01 [2]; [7]): 0.482 µM
Kd (HLA-B*27:05): ≥ 20 µM
Kd (HLA-B*40:01): ≥ 20 µM
Kd (HLA-B*58:01): ≥ 20 µM
Kd (HLA-B*15:02; source organism: Pseudomonas aeruginosa PACS2): 0.814 µM
Sequence: ALEPGFKDY

Sequence: EFVSANLAM
Kd (HLA-A*02:01; [8]): ≥ 20 µM
Kd (HLA-A*02:03; [8]): ≥ 20 µM
Kd (HLA-A*02:11; [8]): ≥ 20 µM
Kd (HLA-A*02:12; [8]): ≥ 20 µM
Kd (HLA-A*02:16; [8]): ≥ 20 µM
Kd (HLA-A*02:19; [8]): ≥ 20 µM
Kd (HLA-A*03:01; [8]): ≥ 20 µM
Kd (HLA-A*24:03; [8]): ≥ 20 µM
Kd (HLA-A*26:01; [8]): ≥ 20 µM
Kd (HLA-A*29:02): ≥ 20 µM
Kd (HLA-A*68:02; [8]): ≥ 20 µM
Kd (HLA-A*69:01; [8]): ≥ 20 µM
Kd (HLA-B*07:02; [8]): ≥ 20 µM
Kd (HLA-B*15:01 [2]; [8]): ≥ 20 µM
Kd (HLA-B*15:17): ≥ 20 µM
Kd (HLA-B*18:01; [8]): ≥ 20 µM
Kd (HLA-B*27:03; [8]): ≥ 20 µM
Kd (HLA-B*35:01; [8]): 0.052 µM
Kd (HLA-B*39:01; [8]): ≥ 20 µM
Kd (HLA-B*46:01 [3]; [8]): ≥ 20 µM
Kd (HLA-B*51:01; [8]): ≥ 20 µM
Kd (HLA-B*57:01; [8]): ≥ 20 µM

Sequence: ELNASFIVF
Kd (HLA-B*15:02; source organism: Rickettsia massiliae MTU5): 0.182 µM

Sequence: FQPQSGNAM
Kd (HLA-B*48:01): 2.53 µM
Kd (HLA-C*08:02; source organism: Burkholderia mallei NCTC 10229): 0.576 µM

Sequence: KIMQVDRPM
Kd (HLA-C*14:02; [9]): 0.102 µM
Kd (HLA-B*15:02; [9]): 4 µM

Sequence: LSDNLSLVY
Kd (HLA-A*01:01 [1]; source organism: Francisella tularensis subsp. holarctica LVS): ≤ 0.001 µM
Kd (HLA-A*80:01): 0.168 µM
Kd (HLA-C*08:02; source organism: Francisella tularensis subsp. tularensis FSC198): 0.552 µM

Sequence: LTIVFVPEV
Kd (HLA-A*02:01; [10]): 0.004 µM
Kd (HLA-A*03:01; [10]): ≥ 20 µM
Kd (HLA-A*26:01; [10]): ≥ 20 µM
Kd (HLA-B*15:01 [2]; [10]): ≥ 20 µM
Kd (HLA-B*18:01; [10]): ≥ 20 µM
Kd (HLA-B*27:03; [10]): ≥ 20 µM
Kd (HLA-B*39:01; [10]): ≥ 20 µM
Kd (HLA-B*46:01 [3]; [10]): ≥ 20 µM

Sequence: MACHRVLTY
Kd (HLA-A*02:01; [11]): ≥ 20 µM
Kd (HLA-A*02:03; [11]): ≥ 20 µM
Kd (HLA-A*02:11; [11]): ≥ 20 µM
Kd (HLA-A*02:12; [11]): ≥ 20 µM
Kd (HLA-A*02:16; [11]): ≥ 20 µM
Kd (HLA-A*02:19; [11]): ≥ 20 µM
Kd (HLA-A*24:03; [11]): ≥ 20 µM
Kd (HLA-A*26:01; [11]): ≥ 20 µM
Kd (HLA-A*68:02; [11]): ≥ 20 µM
Kd (HLA-A*69:01; [11]): ≥ 20 µM
Kd (HLA-B*07:02; [11]): ≥ 20 µM
Kd (HLA-B*15:01 [2]; [11]): 0.104 µM
Kd (HLA-B*18:01; [11]): ≥ 20 µM
Kd (HLA-B*27:03; [11]): ≥ 20 µM
Kd (HLA-B*35:01; [11]): 0.021 µM
Kd (HLA-B*39:01; [11]): ≥ 20 µM
Kd (HLA-B*46:01 [3]; [11]): ≥ 20 µM
Kd (HLA-B*51:01; [11]): ≥ 20 µM
Kd (HLA-C*12:03; [11]): 0.018 µM

Sequence: SALGFTGVY
Kd (HLA-B*15:02; source organism: Brucella canis ATCC 23365): 0.385 µM

Sequence: TSSYYATSY
IC50 (HLA-A*01:01 [4]): 2.01 µM
IC50 (HLA-B*15:01 [5]): 14.3 µM

Sequence: YAMMSLFDM
Kd (HLA-A*02:03; [12]): ≥ 20 µM
Kd (HLA-A*03:01; [12]): ≥ 20 µM
Kd (HLA-A*26:01; [12]): ≥ 20 µM
Kd (HLA-B*07:02; [12]): 18.4 µM
Kd (HLA-B*18:01; [12]): ≥ 20 µM
Kd (HLA-B*27:03; [12]): ≥ 20 µM
Kd (HLA-B*35:01; [12]): 0.004 µM
Kd (HLA-B*51:01; [12]): ≥ 20 µM
Kd (HLA-B*57:01; [12]): ≥ 20 µM
Kd (HLA-B*46:01 [6]): 0.113 µM

Sequence: YLRKHIRAL
Kd (HLA-B*07:02; [13]): 0.003 µM
Kd (HLA-B*15:01 [2]; source organism: Vibrio vulnificus CMCP6): 0.024 µM
Kd (HLA-B*51:01; [13]): ≥ 20 µM
Kd (HLA-C*12:03; [14]): 0.193 µM
Kd (HLA-C*14:02; [14]): 0.099 µM
Kd (HLA-C*15:02): ≥ 20 µM
Kd (HLA-B*15:42): ≥ 5 µM
Kd (HLA-B*45:06): ≥ 5 µM
Kd (HLA-B*83:01): ≥ 5 µM
Kd (HLA-C*06:02): 0.482 µM
